Article PMC8460140, “Identification of BiP as a CB1 Receptor-Interacting Protein That Fine-Tunes Cannabinoid Signaling in the Mouse Brain” (The Journal of Neuroscience, 2021)

Molecular target: T1, His6-tagged BiP-IR (amino acids 497-654), recombinant (UniProt P11021 497-654)
T1 construct: BiP (GRP78, Hspa5), amino acids 497-654; pBH4 vector; also called unlabeled BiP-IR
T1 sequence (looked up): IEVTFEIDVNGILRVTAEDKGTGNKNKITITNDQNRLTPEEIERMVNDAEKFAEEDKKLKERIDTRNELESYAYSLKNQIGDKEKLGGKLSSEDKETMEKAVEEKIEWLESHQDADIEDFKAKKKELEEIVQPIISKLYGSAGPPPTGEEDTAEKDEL
Assay: fluorescence polarisation; saturation binding: constant 100 nM 5-IAF-CB1R-CTD, increasing amounts of unlabeled BiP or BiP-IR
Details: both partners purified

B1: His6-tagged CB1R-CTD (amino acids 400-472), labeled with 5-IAF (domain or fragment, UniProt P21554 400-472, looked up)
chain: RSKDLRHAFRSMFPSCEGTAQPLDNSMGDSDCLHKHANNAASVHRAAESCIKSTVKIAKVTMSVSTDTSAEAL
modifications: labeled with 5-(iodoacetamido)fluorescein (5-IAF); labeled residue not stated
notes: pBH4 vector; also called 5-IAF-CB1R-CTD; 5-IAF-labeled CB1R-CTD
binding result: binds
